Assays:
[1] = target: DENV-2 (TSV01) wildtype E protein, soluble part, V5 tag, from S2 cells (dengue virus serotype 2 (DENV-2), strain TSV01); experiment: sandwich ELISA, V5-tagged soluble E captured by anti-V5; the reference itself
[2] = target: DENV-2 (TSV01) wildtype E protein, full length, expressed with prM in HEK293 cells (dengue virus serotype 2 (DENV-2), strain TSV01); experiment: flow cytometry on transfected HEK293 cells; the reference itself
[3] = target: DENV-2 virus particle, strain TSV01, live (dengue virus serotype 2 (DENV-2), strain TSV01); experiment: cell-based or functional assay
[4] = target: DENV-4 virus particle, strain 2641Y08, live (dengue virus serotype 4 (DENV-4), strain 2641Y08); experiment: cell-based or functional assay
[5] = target: DENV-1 virus particle, strain 05K2916 (167), live (dengue virus serotype 1 (DENV-1), strain 05K2916); experiment: cell-based or functional assay
[6] = target: DENV-3 virus, strain VN32/96 (dengue virus serotype 3 (DENV-3), strain VN32/96); experiment: cell-based or functional assay
[7] = target: DENV-2 (TSV01) E protein mutant T155A, soluble part, V5 tag, from S2 cells (dengue virus serotype 2 (DENV-2), strain TSV01); experiment: sandwich ELISA, V5-tagged soluble E captured by anti-V5
[8] = target: DENV-2 (TSV01) E protein mutant N153A, soluble part, V5 tag, from S2 cells (dengue virus serotype 2 (DENV-2), strain TSV01); experiment: as above
[9] = target: DENV-2 (TSV01) E protein mutant W101A, soluble part, V5 tag, from S2 cells (dengue virus serotype 2 (DENV-2), strain TSV01); experiment: as above
[10] = target: DENV-2 (TSV01) E protein mutant Q167A, soluble part, V5 tag, from S2 cells (dengue virus serotype 2 (DENV-2), strain TSV01); experiment: as above
[11] = target: DENV-2 (TSV01) E protein mutant S169A, soluble part, V5 tag, from S2 cells (dengue virus serotype 2 (DENV-2), strain TSV01); experiment: as above
[12] = target: DENV-2 (TSV01) E protein mutant K64A, soluble part, V5 tag, from S2 cells (dengue virus serotype 2 (DENV-2), strain TSV01); experiment: as above
[13] = target: DENV-2 (TSV01) E protein mutant R323A, soluble part, V5 tag, from S2 cells (dengue virus serotype 2 (DENV-2), strain TSV01); experiment: as above
[14] = target: DENV-2 (TSV01) E protein mutant N203A, soluble part, V5 tag, from S2 cells (dengue virus serotype 2 (DENV-2), strain TSV01); experiment: as above
[15] = target: DENV-2 (TSV01) E protein mutant Q77A, soluble part, V5 tag, from S2 cells (dengue virus serotype 2 (DENV-2), strain TSV01); experiment: as above
[16] = target: DENV-2 (TSV01) E protein mutant G100A, soluble part, V5 tag, from S2 cells (dengue virus serotype 2 (DENV-2), strain TSV01); experiment: as above
[17] = target: DENV-2 (TSV01) E protein mutant E49A, soluble part, V5 tag, from S2 cells (dengue virus serotype 2 (DENV-2), strain TSV01); experiment: as above
[18] = target: DENV-2 (TSV01) E protein mutant N134A, soluble part, V5 tag, from S2 cells (dengue virus serotype 2 (DENV-2), strain TSV01); experiment: as above
[19] = target: DENV-2 (TSV01) E protein mutant K295A, soluble part, V5 tag, from S2 cells (dengue virus serotype 2 (DENV-2), strain TSV01); experiment: as above
[20] = target: DENV-2 (TSV01) E protein mutant F108A, soluble part, V5 tag, from S2 cells (dengue virus serotype 2 (DENV-2), strain TSV01); experiment: as above
[21] = target: DENV-2 (TSV01) E protein mutant S274A, soluble part, V5 tag, from S2 cells (dengue virus serotype 2 (DENV-2), strain TSV01); experiment: as above
[22] = target: DENV-2 (TSV01) E protein mutant E161A, full length, expressed with prM in HEK293 cells (dengue virus serotype 2 (DENV-2), strain TSV01); experiment: flow cytometry on transfected HEK293 cells, normalised to 3H5 staining and to wt
[23] = target: DENV-2 (TSV01) E protein mutant N203A, full length, expressed with prM in HEK293 cells (dengue virus serotype 2 (DENV-2), strain TSV01); experiment: as above
[24] = target: DENV-2 (TSV01) E protein mutant W101A, full length, expressed with prM in HEK293 cells (dengue virus serotype 2 (DENV-2), strain TSV01); experiment: as above
[25] = target: DENV-2 (TSV01) E protein mutant W391A, full length, expressed with prM in HEK293 cells (dengue virus serotype 2 (DENV-2), strain TSV01); experiment: as above
[26] = target: DENV-2 (TSV01) E protein mutant N153A, full length, expressed with prM in HEK293 cells (dengue virus serotype 2 (DENV-2), strain TSV01); experiment: as above
[27] = target: DENV-2 (TSV01) E protein mutant T155A, full length, expressed with prM in HEK293 cells (dengue virus serotype 2 (DENV-2), strain TSV01); experiment: as above
[28] = target: DENV-2 (TSV01) E protein mutant K295A, full length, expressed with prM in HEK293 cells (dengue virus serotype 2 (DENV-2), strain TSV01); experiment: as above
[29] = target: DENV-2 (TSV01) E protein mutant Q77A, full length, expressed with prM in HEK293 cells (dengue virus serotype 2 (DENV-2), strain TSV01); experiment: as above
[30] = target: DENV-2 (TSV01) E protein mutant F392A, full length, expressed with prM in HEK293 cells (dengue virus serotype 2 (DENV-2), strain TSV01); experiment: as above
[31] = target: DENV-2 (TSV01) E protein mutant K122A, full length, expressed with prM in HEK293 cells (dengue virus serotype 2 (DENV-2), strain TSV01); experiment: as above
[32] = target: DENV-2 (TSV01) E protein mutant R323A, full length, expressed with prM in HEK293 cells (dengue virus serotype 2 (DENV-2), strain TSV01); experiment: as above
[33] = target: DENV-2 (TSV01) E protein mutant S169A, full length, expressed with prM in HEK293 cells (dengue virus serotype 2 (DENV-2), strain TSV01); experiment: as above
[34] = target: DENV-2 (TSV01) E protein mutant K310A, full length, expressed with prM in HEK293 cells (dengue virus serotype 2 (DENV-2), strain TSV01); experiment: as above
[35] = target: DENV-2 (TSV01) E protein mutant Q200A, full length, expressed with prM in HEK293 cells (dengue virus serotype 2 (DENV-2), strain TSV01); experiment: as above
[36] = target: DENV-2 (TSV01) E protein mutant E49A, full length, expressed with prM in HEK293 cells (dengue virus serotype 2 (DENV-2), strain TSV01); experiment: as above
[37] = target: DENV-2 (TSV01) E protein mutant E202A, full length, expressed with prM in HEK293 cells (dengue virus serotype 2 (DENV-2), strain TSV01); experiment: as above
[38] = target: DENV-2 (TSV01) E protein mutant N134A, full length, expressed with prM in HEK293 cells (dengue virus serotype 2 (DENV-2), strain TSV01); experiment: as above
[39] = target: DENV-2 (TSV01) E protein mutant I162A, full length, expressed with prM in HEK293 cells (dengue virus serotype 2 (DENV-2), strain TSV01); experiment: as above

B1: 3C H5L1 antibody (antibody, V domains shown)
VH: EVQLVQSGPDVEKPGASVKVSCKASGYTFTSNYIHWVRQAPGQGLEWMGVINPRGGSTASAQKFQGRITMTRDTSTSTVYMELSSLRSDDTAVYYCARGGRALFYDSYTTPRDGGSWWFDPWGQGSLVTVSS
VL: DIQLTQSPSSLSASVGDRVTFTCQASQDIRKYLNWYQQKPGKAPKLLIYDASNLKTGVPSRFSGSGSGTDFTFTISSLQPEDVATYYCQQFDDLPITFGQGTRLQIK
[1]
  relative binding (normalised to wt E protein) (ratio to wt E protein): 1
[2]
  relative binding (normalised to wt E protein) (ratio to wt E protein): 1
[3]
  EC50, plaque reduction neutralization test (PRNT) on BHK-21 cells: 0.001 µg/mL
[4]
  EC50, plaque reduction neutralization test (PRNT) on BHK-21 cells: 0.07 µg/mL
[5]
  EC50, plaque reduction neutralization test (PRNT) on BHK-21 cells: 0.6 µg/mL
[6]
  EC50, plaque reduction neutralization test (PRNT) on BHK-21 cells: 0.5 µg/mL
[7]
  relative binding (normalised to wt E protein) (ratio to wt E protein): 0.839
[8]
  relative binding (normalised to wt E protein) (ratio to wt E protein): 0.806
[9]
  relative binding (normalised to wt E protein) (ratio to wt E protein): 0.242
[10]
  relative binding (normalised to wt E protein) (ratio to wt E protein): 0.774
[11]
  relative binding (normalised to wt E protein) (ratio to wt E protein): 0.784
[12]
  relative binding (normalised to wt E protein) (ratio to wt E protein): 0.444
[13]
  relative binding (normalised to wt E protein) (ratio to wt E protein): 0.334
[14]
  relative binding (normalised to wt E protein) (ratio to wt E protein): 0.72
[15]
  relative binding (normalised to wt E protein) (ratio to wt E protein): 0.747
[16]
  relative binding (normalised to wt E protein) (ratio to wt E protein): 0.186
[17]
  relative binding (normalised to wt E protein) (ratio to wt E protein): 0.695
[18]
  relative binding (normalised to wt E protein) (ratio to wt E protein): 0.221
[19]
  relative binding (normalised to wt E protein) (ratio to wt E protein): 0.189
[20]
  relative binding (normalised to wt E protein) (ratio to wt E protein): 0.806
[21]
  relative binding (normalised to wt E protein) (ratio to wt E protein): 0.0859
[22]
  relative binding (normalised to wt E protein) (ratio to wt E protein): 1.07
[23]
  relative binding (normalised to wt E protein) (ratio to wt E protein): 0.719
[24]
  relative binding (normalised to wt E protein) (ratio to wt E protein): 0.165
[25]
  relative binding (normalised to wt E protein) (ratio to wt E protein): 0.144
[26]
  relative binding (normalised to wt E protein) (ratio to wt E protein): 0.535
[27]
  relative binding (normalised to wt E protein) (ratio to wt E protein): 0.621
[28]
  relative binding (normalised to wt E protein) (ratio to wt E protein): 1.04
[29]
  relative binding (normalised to wt E protein) (ratio to wt E protein): 0.38
[30]
  relative binding (normalised to wt E protein) (ratio to wt E protein): 0.133
[31]
  relative binding (normalised to wt E protein) (ratio to wt E protein): 0.27
[32]
  relative binding (normalised to wt E protein) (ratio to wt E protein): 0.416
[33]
  relative binding (normalised to wt E protein) (ratio to wt E protein): 0.963
[34]
  relative binding (normalised to wt E protein) (ratio to wt E protein): 0.15
[35]
  relative binding (normalised to wt E protein) (ratio to wt E protein): 0.394
[36]
  relative binding (normalised to wt E protein) (ratio to wt E protein): 0.996
[37]
  relative binding (normalised to wt E protein) (ratio to wt E protein): 2.02
[38]
  relative binding (normalised to wt E protein) (ratio to wt E protein): 1.08
[39]
  relative binding (normalised to wt E protein) (ratio to wt E protein): 0.242
